# According to PMC3799435, “Dissecting the interactions of SERRATE with RNA and DICER-LIKE 1 in Arabidopsis microRNA precursor processing” (Nucleic Acids Research, 2013):
# B1: SERRATE (SE), untagged recombinant (natural protein, Arabidopsis thaliana, UniProt Q9ZVD0 1-720, looked up)
# chain: MADVNLPPSDSVDNRLPEKSTSSSPPPPPPSSSLPQQEQEQDQQQLPLRRERDSRERRDERDIERPPPNRRERDRSPLPPPRRDYKRRPSLSPPPPYRDRRHSPPQRRSPPQKRYRRDDNGYDGRRGSPRGGYGPPDRRFGYDHGGGYDREMGGRPGYGDERPHGRFMGRYQDWEGGRGGYGDASNSGNPQRDGLMSYKQFIQELEDDILPSEAERRYQEYKSEYITTQKRAFFNTHKEEDWLKNKYHPTNLLSVIERRNDLAQKVAKDFLLDLQSGTLDLGPAVTALNKSGRTSEPNSEDEAAGVGKRKRHGMGGAKENELLSAAPKAPSFTSDPKRILTDVEQTQALVRKLDSEKKIEENVLQGSETEKSGREKLHSGSTGPVVIIRGLTSVKGLEGVELLDTLVTYLWRVHGLDYYGKVETNEAKGLRHVRAEGKVSDAKGDENESKFDSHWQERLKGQDPLEVMAAKEKIDAAATEALDPHVRKIRDEKYGWKYGCGAKGCTKLFHAAEFVYKHLKLKHTELVTELTTKVREELYFQNYMNDPNAPGGQPATQQSGPRDRPIRRKPSMENRLRDDRGGRRERDGRANGNDRNDRSEDQQRGDNDGGNPGEVGYDAFGGQGGVHVPPFLSDINPPPMLMPVPGAGPLGPFVPAPPEVAMQMFRDPSGPNPPFEGSGRGGPAPFLLSPAFRQDPRRLRSYQDLDAPEEEVTVIDYRSL
# notes: SERRATE (SE) of Arabidopsis thaliana, 81 kDa, 720 amino acids; cDNA amplified with primers from the start codon to the stop codon; also called native SE; untagged SE; source: Sf9 insect cells (baculovirus), purified (Ni-NTA, StrepTrap, SUMOstar protease, Ni-NTA flow-through, Superdex 200); not shown: His6, N-terminal, cleaved; Strep-tag II, N-terminal, cleaved; SUMOstar, N-terminal, cleaved
# B2: N-terminally hexahistidine-tagged wild-type SERRATE (SE) (natural protein, Arabidopsis thaliana, UniProt Q9ZVD0 1-720, looked up)
# chain: B1 chain
# notes: SERRATE (SE) of Arabidopsis thaliana, 720 amino acids; tagged protein 86 kDa; primers from the start codon to the stop codon; myc tag and Strep tag II were inserted in the NotI site of the modified pENTR-D/TOPO vector, then moved to pDEST10; also called His-tagged SE; hexahistidine-tagged SE; source: Sf9 insect cells (baculovirus), purified (TALON, Superdex 200); not shown: His6, N-terminal, kept
# B3: SE1–701, C-terminally truncated hexahistidine-tagged SERRATE (domain or fragment, Arabidopsis thaliana, UniProt Q9ZVD0 1-701, looked up)
# chain: MADVNLPPSDSVDNRLPEKSTSSSPPPPPPSSSLPQQEQEQDQQQLPLRRERDSRERRDERDIERPPPNRRERDRSPLPPPRRDYKRRPSLSPPPPYRDRRHSPPQRRSPPQKRYRRDDNGYDGRRGSPRGGYGPPDRRFGYDHGGGYDREMGGRPGYGDERPHGRFMGRYQDWEGGRGGYGDASNSGNPQRDGLMSYKQFIQELEDDILPSEAERRYQEYKSEYITTQKRAFFNTHKEEDWLKNKYHPTNLLSVIERRNDLAQKVAKDFLLDLQSGTLDLGPAVTALNKSGRTSEPNSEDEAAGVGKRKRHGMGGAKENELLSAAPKAPSFTSDPKRILTDVEQTQALVRKLDSEKKIEENVLQGSETEKSGREKLHSGSTGPVVIIRGLTSVKGLEGVELLDTLVTYLWRVHGLDYYGKVETNEAKGLRHVRAEGKVSDAKGDENESKFDSHWQERLKGQDPLEVMAAKEKIDAAATEALDPHVRKIRDEKYGWKYGCGAKGCTKLFHAAEFVYKHLKLKHTELVTELTTKVREELYFQNYMNDPNAPGGQPATQQSGPRDRPIRRKPSMENRLRDDRGGRRERDGRANGNDRNDRSEDQQRGDNDGGNPGEVGYDAFGGQGGVHVPPFLSDINPPPMLMPVPGAGPLGPFVPAPPEVAMQMFRDPSGPNPPFEGSGRGGPAPFLLSPAFRQDPRRLRS
# notes: No cleavage step of the tag is described in the purification; also called C-terminal domain deletion; source: Sf9 insect cells (baculovirus), purified (TALON, Superdex 200)
# Key:
# Settings in all cases: both partners purified
# [1] = molecular target: T1, DICER-LIKE 1 (DCL1), untagged recombinant (Arabidopsis thaliana, UniProt Q9SP32 1-1909); assay: SPR; Biacore T100; 1750 RU of DCL1 immobilised via amine groups on a CM5 chip; SE injected for 70 s at 20 nM; 20 mM Tris-HCl (pH 7.0), 2 mM β-ME, 0.005% surfactant P20, 50 mM or 150 mM NaCl
# T1 construct: DICER-LIKE 1 (DCL1) of Arabidopsis thaliana, 214 kDa; cDNA amplified with primers from the start codon to the stop codon; one silent mutation introduced; no extra residues at the N-terminus after SUMOstar protease; also called native DCL1; source: Sf9 insect cells (baculovirus), purified (Ni-NTA, StrepTrap, SUMOstar protease, Ni-NTA flow-through, Superdex 200); not shown: His6, N-terminal, …
# [2] = molecular target: T1, DICER-LIKE 1 (DCL1), untagged …; assay: SPR; Biacore T100; about 1750 RU of DCL1 immobilised via amine groups on a CM5 chip, no RNA; SE and its mutants injected for 70 s at 20 nM; 20 mM Tris-HCl (pH 7.0), 50 mM NaCl, 2 mM β-ME, 0.005% surfactant P20
# [3] = molecular target: T1, DICER-LIKE 1 (DCL1), untagged …; assay: SPR; Biacore T100; about 1200 RU of DCL1 (injected at 16 nM) bound beforehand to 60 RU of biotin-labelled forked RNA on an SA chip; SE and its mutants then injected for 70 s at 20 nM; 20 mM Tris-HCl (pH 7.0), 50 mM NaCl, 2 mM β-ME, 0.005% surfactant P20; RU of mutants normalised to the RU of DCL1 bound
# T1 sequence (Q9SP32 whole entry): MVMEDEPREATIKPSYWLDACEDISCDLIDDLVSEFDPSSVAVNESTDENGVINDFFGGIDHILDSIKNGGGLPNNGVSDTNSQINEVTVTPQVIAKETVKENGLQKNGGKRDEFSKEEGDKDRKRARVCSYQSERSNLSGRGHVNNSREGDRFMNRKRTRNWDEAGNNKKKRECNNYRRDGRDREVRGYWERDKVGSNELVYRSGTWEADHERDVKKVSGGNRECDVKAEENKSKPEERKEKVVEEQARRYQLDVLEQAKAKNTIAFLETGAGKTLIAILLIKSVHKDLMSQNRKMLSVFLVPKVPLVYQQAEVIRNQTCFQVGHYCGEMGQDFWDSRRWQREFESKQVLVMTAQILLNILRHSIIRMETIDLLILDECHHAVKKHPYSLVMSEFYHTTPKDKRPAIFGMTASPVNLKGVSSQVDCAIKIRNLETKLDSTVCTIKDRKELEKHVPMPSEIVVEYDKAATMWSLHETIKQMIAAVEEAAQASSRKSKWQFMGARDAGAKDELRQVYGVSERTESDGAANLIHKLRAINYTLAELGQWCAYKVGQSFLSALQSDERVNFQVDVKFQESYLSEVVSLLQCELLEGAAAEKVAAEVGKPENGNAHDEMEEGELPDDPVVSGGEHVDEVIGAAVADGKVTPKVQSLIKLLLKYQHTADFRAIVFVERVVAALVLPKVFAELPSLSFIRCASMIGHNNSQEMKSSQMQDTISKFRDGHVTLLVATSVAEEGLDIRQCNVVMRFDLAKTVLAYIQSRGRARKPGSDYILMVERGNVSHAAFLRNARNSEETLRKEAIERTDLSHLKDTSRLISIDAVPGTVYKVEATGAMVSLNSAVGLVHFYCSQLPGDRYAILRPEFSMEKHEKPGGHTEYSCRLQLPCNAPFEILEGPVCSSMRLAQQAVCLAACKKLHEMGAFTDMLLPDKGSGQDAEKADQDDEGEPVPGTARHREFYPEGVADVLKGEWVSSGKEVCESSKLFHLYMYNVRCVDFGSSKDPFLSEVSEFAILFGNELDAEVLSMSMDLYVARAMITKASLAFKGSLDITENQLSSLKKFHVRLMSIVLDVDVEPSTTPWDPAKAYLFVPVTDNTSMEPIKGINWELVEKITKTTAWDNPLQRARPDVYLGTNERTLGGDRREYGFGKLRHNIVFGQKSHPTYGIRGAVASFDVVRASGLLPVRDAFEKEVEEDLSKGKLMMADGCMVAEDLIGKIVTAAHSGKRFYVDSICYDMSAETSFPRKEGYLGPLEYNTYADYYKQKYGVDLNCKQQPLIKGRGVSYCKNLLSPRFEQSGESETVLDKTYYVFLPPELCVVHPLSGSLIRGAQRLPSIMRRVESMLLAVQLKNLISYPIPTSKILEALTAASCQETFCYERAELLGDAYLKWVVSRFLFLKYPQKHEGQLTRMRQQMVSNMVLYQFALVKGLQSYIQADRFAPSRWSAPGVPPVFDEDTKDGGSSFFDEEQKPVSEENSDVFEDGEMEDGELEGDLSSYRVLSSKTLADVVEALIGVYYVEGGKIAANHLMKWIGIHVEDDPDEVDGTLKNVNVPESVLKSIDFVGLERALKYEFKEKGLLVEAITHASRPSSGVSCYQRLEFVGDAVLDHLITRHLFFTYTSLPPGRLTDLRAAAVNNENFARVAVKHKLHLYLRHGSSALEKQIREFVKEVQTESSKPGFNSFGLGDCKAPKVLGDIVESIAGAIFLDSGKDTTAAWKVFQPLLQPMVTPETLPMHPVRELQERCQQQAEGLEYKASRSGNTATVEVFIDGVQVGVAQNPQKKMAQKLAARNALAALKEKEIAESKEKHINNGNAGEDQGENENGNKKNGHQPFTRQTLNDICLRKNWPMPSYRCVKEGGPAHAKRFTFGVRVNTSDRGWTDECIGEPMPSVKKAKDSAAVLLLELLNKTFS
binder,measurement,setting,value
B1,fold reduction in RUmax from 50 to 150 mM NaCl,[1],5 fold
B2,stoichiometry N,[2],0.7 SE:DCL1 molar ratio
same,stoichiometry N,[3],2.4 SE:DCL1 molar ratio
B3,binding result,[2],binds
